Measured values reported in patent US20250066441A1.
Read-outs that look alike come from different tables or passages of the source.

Legend:
Assay in all cases: cell-based or functional assay
[1] = molecular target: murine IL12 receptor complex (IL12Rβ1 and IL12Rβ2) on cells (murine) (UniProt Q60837)
[2] = molecular target: murine IL12 receptor complex (IL12Rβ1 and IL12Rβ2) on cells (murine) (UniProt Q60837); remark: listed apart in the source
[3] = molecular target: murine IL12 receptor complex (IL12Rβ1 and IL12Rβ2) on cells (murine) (UniProt Q60837); remark: listed apart in the source

murine IL12 receptor complex (IL12Rβ1 and IL12Rβ2) on cells (murine), sequence (Q60837 20-738, chain 1 of 2): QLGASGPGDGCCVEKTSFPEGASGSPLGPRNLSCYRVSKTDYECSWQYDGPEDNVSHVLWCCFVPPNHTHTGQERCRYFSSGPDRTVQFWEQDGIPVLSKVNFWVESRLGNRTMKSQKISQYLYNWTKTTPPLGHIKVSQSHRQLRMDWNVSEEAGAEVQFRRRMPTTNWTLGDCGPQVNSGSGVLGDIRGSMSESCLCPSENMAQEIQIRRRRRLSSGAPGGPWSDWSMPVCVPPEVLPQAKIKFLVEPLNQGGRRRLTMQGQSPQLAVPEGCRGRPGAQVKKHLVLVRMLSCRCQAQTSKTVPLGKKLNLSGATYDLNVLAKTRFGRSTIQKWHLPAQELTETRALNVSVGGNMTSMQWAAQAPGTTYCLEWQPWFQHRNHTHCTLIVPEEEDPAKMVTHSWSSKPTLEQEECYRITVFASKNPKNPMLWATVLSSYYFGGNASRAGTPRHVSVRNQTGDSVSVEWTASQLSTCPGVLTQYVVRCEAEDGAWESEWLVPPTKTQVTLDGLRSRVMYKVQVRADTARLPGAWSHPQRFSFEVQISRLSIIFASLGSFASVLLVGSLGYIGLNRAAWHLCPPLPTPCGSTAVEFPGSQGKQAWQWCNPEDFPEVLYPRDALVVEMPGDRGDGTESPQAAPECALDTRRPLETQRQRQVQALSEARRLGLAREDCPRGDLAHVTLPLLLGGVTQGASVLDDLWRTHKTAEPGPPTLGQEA
murine IL12 receptor complex (IL12Rβ1 and IL12Rβ2) on cells (murine), sequence (P97378 24-874, chain 2 of 2, further chain): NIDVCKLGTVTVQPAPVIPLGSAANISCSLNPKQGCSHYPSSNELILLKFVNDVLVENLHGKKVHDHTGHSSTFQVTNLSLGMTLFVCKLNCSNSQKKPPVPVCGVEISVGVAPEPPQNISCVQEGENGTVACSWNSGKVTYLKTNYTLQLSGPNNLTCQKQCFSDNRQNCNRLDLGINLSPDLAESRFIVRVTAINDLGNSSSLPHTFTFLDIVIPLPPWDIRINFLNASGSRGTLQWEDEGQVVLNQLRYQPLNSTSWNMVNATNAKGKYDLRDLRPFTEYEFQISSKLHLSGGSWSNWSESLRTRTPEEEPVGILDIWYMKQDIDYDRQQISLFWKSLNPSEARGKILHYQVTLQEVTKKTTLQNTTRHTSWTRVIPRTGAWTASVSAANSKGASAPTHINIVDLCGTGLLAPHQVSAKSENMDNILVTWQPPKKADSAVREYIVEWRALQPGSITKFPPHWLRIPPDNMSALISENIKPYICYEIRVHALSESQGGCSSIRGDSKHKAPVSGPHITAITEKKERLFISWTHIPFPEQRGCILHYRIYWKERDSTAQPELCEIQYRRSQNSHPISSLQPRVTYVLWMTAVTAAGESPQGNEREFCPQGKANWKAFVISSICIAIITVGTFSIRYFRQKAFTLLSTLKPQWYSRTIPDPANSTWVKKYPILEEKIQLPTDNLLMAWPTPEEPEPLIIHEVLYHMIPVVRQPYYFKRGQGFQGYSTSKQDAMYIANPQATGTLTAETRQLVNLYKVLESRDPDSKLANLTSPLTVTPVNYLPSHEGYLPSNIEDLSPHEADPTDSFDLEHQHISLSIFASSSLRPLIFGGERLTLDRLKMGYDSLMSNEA

B1: Recomb mIL12 (ligand, mouse)
chain 1: MWELEKDVYVVEVDWTPDAPGETVNLTCDTPEEDDITWTSDQRHGVIGSGKTLTITVKEFLDAGQYTCHKGGETLSHSHLLLHKKENGIWSTEILKNFKNKTFLKCEAPNYSGRFTCSWLVQRNMDLKFNIKSSSSSPDSRAVTCGMASLSAEKVTLDQRDYEKYSVSCQEDVTCPTAEETLPIELALEARQQNKYENYSTSFFIRDIIKPDPPKNLQMKPLKNSQVEVSWEYPDSWSTPHSYFSLKFFVRIQRKKEKMKETEEGCNQKGAFLVEKTSTEVQCKGGNVCVQAQDRYYNSSCSKWACVPCRVRS
chain 2: RVIPVSGPARCLSQSRNLLKTTDDMVKTAREKLKHYSCTAEDIDHEDITRDQTSTLKTCLPLELHKNESCLATRETSSTTRGSCLPPQKTSLMMTLCLGSIYEDLKMYQTEFQAINAALQNHNHQQIILDKGMLVAIDELMQSLNHNGETLRQKPPVGEADPYRVKMKLCILLHAFSTRVVTINRVMGYLSSA
[1]
  EC50 (M), STAT3-Luc reporter, CTLL2/STAT3-Luc cells: 3.46e-11 M
  Fold induction at 20 nM, STAT3-Luc reporter, CTLL2/STAT3-Luc cells: 18.8 fold
  Max fold induction, STAT3-Luc reporter, CTLL2/STAT3-Luc cells: 19.1 fold
[2]
  EC50 (M), STAT3-Luc reporter, CTLL2/STAT3-Luc cells: 3.71e-10 M
  Max fold induction, STAT3-Luc reporter, CTLL2/STAT3-Luc cells: 17.8 fold
[3]
  EC50 (M), STAT3-Luc reporter, CTLL2/STAT3-Luc cells: 5.56e-11 M
  Fold induction at 6.25 nM, STAT3-Luc reporter, CTLL2/STAT3-Luc cells: 12.2 fold
  Max fold induction, STAT3-Luc reporter, CTLL2/STAT3-Luc cells: 12.4 fold
